{
  "source": "patent US20210113587A1",
  "about": "(ADC THERAPEUTICS, published 2021)",
  "key": {"[1]": {"target": "T1, human recombinant soluble CD25 ectodomain (human, UniProt P01589 22-240)", "T1 construct": "extracellular domain; Immobilised on a Biacore CM3 chip; also called sCD25 ectodomain; human sCD25 ectodomain", "T1 sequence (looked up)": "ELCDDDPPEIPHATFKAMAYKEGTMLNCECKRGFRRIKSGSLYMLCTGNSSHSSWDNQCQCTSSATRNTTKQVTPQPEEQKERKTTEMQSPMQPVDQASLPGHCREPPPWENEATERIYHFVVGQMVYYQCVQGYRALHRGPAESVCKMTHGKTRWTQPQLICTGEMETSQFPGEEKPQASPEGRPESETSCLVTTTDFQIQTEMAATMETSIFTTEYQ", "experiment": "SPR (Biacore CM3 chip), sCD25 ectodomain immobilised; run 4", "experimental": "(§1) The equilibrium dissociation constant, KD, was calculated for both molecules using BIAevaluation ® software."}, "[2]": {"target": "T1, human recombinant soluble CD25 …", "experiment": "SPR (Biacore CM3 chip), sCD25 ectodomain immobilised; run 2", "experimental": "as §1"}, "[3]": {"target": "T1, human recombinant soluble CD25 …", "experiment": "SPR (Biacore CM3 chip), sCD25 ectodomain immobilised; run 5", "experimental": "as §1"}, "[4]": {"target": "T1, human recombinant soluble CD25 …", "experiment": "SPR (Biacore CM3 chip), sCD25 ectodomain immobilised; mean of runs", "experimental": "as §1"}, "[5]": {"target": "T1, human recombinant soluble CD25 …", "experiment": "SPR (Biacore CM3 chip), sCD25 ectodomain immobilised; run 3", "experimental": "as §1"}, "[6]": {"target": "T2, human CD25 on concanavalin-A activated CD25-positive human PBMCs and CD25-expressing lymphoma cell lines (human, UniProt P01589 22-272)", "T2 construct": "whole, on cells; also called IL2R-α; Interleukin-2 receptor-α", "T2 sequence (looked up)": "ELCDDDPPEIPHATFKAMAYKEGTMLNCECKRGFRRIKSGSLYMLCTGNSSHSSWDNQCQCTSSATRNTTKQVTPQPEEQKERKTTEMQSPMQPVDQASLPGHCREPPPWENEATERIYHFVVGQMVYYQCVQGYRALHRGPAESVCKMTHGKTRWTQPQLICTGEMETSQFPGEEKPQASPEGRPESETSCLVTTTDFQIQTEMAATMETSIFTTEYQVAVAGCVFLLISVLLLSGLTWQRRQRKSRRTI", "experiment": "flow cytometry, MFI on concanavalin-A activated CD25-positive human PBMCs (CD25-PE gate)", "experimental": "FIG. 1. […] Isotype, non-targeting-ADC-FITC was used as the non-binding ADC control. The EC₅₀ was ≈0.03 μg/ml (180 pM)."}, "[7]": {"target": "T1, human recombinant soluble CD25 …", "experiment": "SPR (Biacore CM3 chip), sCD25 ectodomain immobilised; run 1", "experimental": "as §1"}, "[8]": {"target": "T1, human recombinant soluble CD25 …", "experiment": "SPR (Biacore CM3 chip), sCD25 ectodomain immobilised; run 6", "experimental": "as §1"}},
  "data": [
    {"binder": "ADCT-301 (antibody, V domains shown, pyrrolobenzodiazepine (PBD) warhead attached by a cleavable linker, drug-antibody ratio 2.3±0.3; attachment residues not stated, also called HuMax-TAC-E of WO2014/57119) VH: QVQLVQSGAEVKKPGSSVKVSCKASGGTFSRYIINWVRQAPGQGLEWMGRIIPILGVENYAQKFQGRVTITADKSTSTAYMELSSLRSEDTAVYYCARKDWFDYWGQGTLVTVSS VL: not shown", "values": [
      {"measurement": "Kd", "setting": "[1]", "result": 0.0179, "unit": "nM"},
      {"measurement": "Kd", "setting": "[2]", "result": 0.0205, "unit": "nM"},
      {"measurement": "Kd", "setting": "[3]", "result": 0.0212, "unit": "nM"},
      {"measurement": "Kd", "setting": "[4]", "result": 0.0209, "unit": "nM"},
      {"measurement": "Kd", "setting": "[5]", "result": 0.0207, "unit": "nM"},
      {"measurement": "EC50", "setting": "[6]", "result": "~0.18", "unit": "nM"},
      {"measurement": "Kd", "setting": "[7]", "result": 0.0205, "unit": "nM"},
      {"measurement": "Kd", "setting": "[8]", "result": 0.0244, "unit": "nM"}
    ]},
    {"binder": "HuMax®-TAC (antibody, V domains shown, also called AB12; naked antibody) VH: QVQLVQSGAEVKKPGSSVKVSCKASGGTFSRYIINWVRQAPGQGLEWMGRIIPILGVENYAQKFQGRVTITADKSTSTAYMELSSLRSEDTAVYYCARKDWFDYWGQGTLVTVSS VL: not shown", "values": [
      {"measurement": "Kd", "setting": "[1]", "result": 0.0148, "unit": "nM"},
      {"measurement": "Kd", "setting": "[2]", "result": 0.016, "unit": "nM"},
      {"measurement": "Kd", "setting": "[3]", "result": 0.0144, "unit": "nM"},
      {"measurement": "Kd", "setting": "[4]", "result": 0.0158, "unit": "nM"},
      {"measurement": "Kd", "setting": "[5]", "result": 0.0191, "unit": "nM"},
      {"measurement": "Kd", "setting": "[7]", "result": 0.0146, "unit": "nM"}
    ]}
  ]
}
